Measured values as given in patent US20020164767.

Tested on: PFEK-protease C-E-6XHIS zymogen
Sequence (chain, as listed by the source): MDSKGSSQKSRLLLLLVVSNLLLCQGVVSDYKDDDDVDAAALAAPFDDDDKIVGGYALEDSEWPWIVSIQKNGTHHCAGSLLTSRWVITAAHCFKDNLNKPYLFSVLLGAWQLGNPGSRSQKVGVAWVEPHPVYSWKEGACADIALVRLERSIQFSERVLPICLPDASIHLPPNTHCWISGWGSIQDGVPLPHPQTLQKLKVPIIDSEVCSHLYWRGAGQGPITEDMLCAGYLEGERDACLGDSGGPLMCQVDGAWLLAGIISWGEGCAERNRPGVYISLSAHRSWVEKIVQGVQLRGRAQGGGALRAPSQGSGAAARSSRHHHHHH

Q: Which “cleavage of the zymogen (SDS-PAGE and anti-FLAG Western blot)” value does the source give for enterokinase here?
A: This demonstrates the quantitative cleavage of the expressed and purified zymogen to generate the processed and activated protease
